Results: patent US20050059087A1, “Antibodies directed to the deletion mutants of epidermal growth factor receptor and uses thereof” (priority 2003, published 2005)

Legend:
[1] = target: T1, EGFRvIII receptor on NR6 M cells (Homo sapiens, UniProt P00533, DELINS30-297G); assay: Internalization assay of B-cell culture supernatants (FMAT, glutathione); assay type: cell-based
T1 construct: expressed in transfected cells; host or cells: NR6 murine fibroblasts (NR6 M)
Experimental: The top 60 native binding B cell culture supernatants were further assayed for their ability to internalize the receptor. NR6 M cells were seeded at 8000 cells/well into 96 well FMAT plates and incubated overnight. Media was removed and 10-15 μl B-Cell culture supernatant in a total volume of 30 μl media, in duplicate was added. Next, 15 μl of secondary antibody (SS Alexa 647 anti-human IgG Fab at 1.5 μg/ml final concentration) was added and the mixture was incubated on ice for 1 hr. An irrelevant B-Cell Culture supernatant was used to see the effect of the culture media. Human anti-EGFRvIII mAb 13.2.1 was used as a positive control starting at 1 μg/ml (final concentration) and negative control was PK 16.3.1 (human anti-KLH IgG2 antibody) at the same concentration. After incubation, the cells were washed with cold PBS, 50 μl media was added to all of the wells, one of the duplicates were incubated at 37° C. for 30 mins while the other duplicate remained on ice. After the incubations media was removed, 100 ul of cold 50 mM glutathione was added to the set incubated at 37° C. and 100 μl of cold media added to the other set, both sets were then left on ice for 1 hr. The cells were then washed with 100 μl cold PBS and then fixed with 1% paraformaldehyde and read in FMAT. The results were expressed as % intermalized, calculated as total fluorescence in the presence of glutathione/total fluorescence in the absence of glutathione X 100.

[2] = target: T2, EGFrVIII peptide sequence (residues 1-20) (Homo sapiens, UniProt P00533, DELINS30-297G); assay: Epitope mapping by SPOTs peptide array and Alanine scanning; assay type: binding; conditions: SEQ ID 94/98 = EEKKGNYVVT; 95 = LEEKKGNYVVTD; 96 = YVVTDH; 97 = YVVTD; 99 = GNYVVT
T2 construct: purchased Sigma-Genosys (custom SPOTs array)
Excerpt: The approach that was used was a custom SPOTs peptide array (Sigma Genosys) to study the molecular interaction of the human anti-EGFrVIII antibodies with their peptide epitope. SPOTs technology is based on the solid-phase synthesis of peptides in a format suitable for the systematic analysis of antibody epitopes. Synthesis of custom arrayed oligopeptides is commerically available from Sigma-Genosys. A peptide array of overlapping oligopeptides derived from the amino-acid sequence of the EGFr VIII variant was ordered from Sigma-Genosys.
A series of nine 12-mer peptides were synthesized as spots on polypropylene membrane sheets. The peptide array spanned residues 1-20 of the EGFrVIII sequence, representing the deletion of amino acids 6-273 in the extracellular domain of wtEGFr, and the generation of a glycine (G) residue at the junction point. Each consecutive peptide was offset by 1 residue from the previous one, yielding a nested, overlapping library of arrayed oligopeptides. The membrane carrying the 9 peptides was reacted with 9 different anti EGFrVIII antibodies (1 μg/ml). The binding of the mAbs to the membrane-bound peptides was assessed by an enzyme-linked immunosorbent assay using HRP-conjugated secondary antibody followed by enhanced chemiluminescence (ECL).
In addition, functional epitopes were mapped by combinatorial Alanine scanning. In this process, a combinatorial Alanine-scanning strategy was used to identify amino acids in the EGFrVIII peptide necessary for interaction with anti-EGFRvIII mAbs. To accomplish this, a second set of SPOTs arrays was ordered for Alanine scanning. A panel of variants peptides with alanine substitutions in each of the 12 residues was scanned as above. Spot #1, the unmutated sequence, is a positive control for antibody binding.

[3] = target: T3, Pep-3 (EGFRvIII epitope) (Homo sapiens, UniProt P00533, DELINS30-297G); assay: Biacore (surface plasmon resonance) binding kinetics to Pep-3; conditions: for Ka / dissociation rate constant (kd, koff): parentheses 95% confidence interval
T3 construct: purchased Anatech, Inc. (San Jose, Calif.); host or cells: custom synthesis
Experimental: All antigen and mAb samples for Biacore and KinExA analysis were prepared in vacuum-degassed HBS-P buffer (0.01 M HEPES, 0.15 M NaCl, 0.005% surfactant P-20, Biacore Inc., Uppsala, Sweden) containing 100 μg/mL BSA. […] Research grade CM5 biosensor chips were purchased from Biacore, Inc.
Standard EDC/NHS and carbohydrate coupling was used to covalently immobilize mAbs to a CM5 sensor chip. To minimize mass transport and crowding mAbs were immobilized at levels that gave a maximum antigen binding response (Rmax) of no more than 50-100 RU. A reference flow cell on each chip was activated and blocked with no mAb immobilization to serve as a control.
All Biacore kinetic experiments were conducted at 23° C. […] Antigen samples were randomly injected over the biosensor surface in triplicate at 100 μL/min. Several buffer blanks were injected intermittently over the course of an experiment for double referencing. Each pep-3 concentration and blank were injected for 90 seconds. Dissociation was followed for 13 to 180 minutes.
All Biacore sensorgrams were processed using Scrubber software (Version 1.1f, BioLogic Software, Australia). Sensorgrams were first zeroed on the y-axis and then x-aligned at the beginning of the injection. Bulk refractive index changes were removed by subtracting the reference flow cell responses. The average response of all blank injections was subtracted from all analyte and blank sensorgrams to remove systematic artifacts between the experimental and reference flow cells. CLAMP biosensor data analysis software (Version 3.40, BioLogic Software, Australia) was used to determine ka and kd from the processed data sets. Data from all flow cells were globally fit to a 1:1 bimolecular binding model that included a mass transport term. […] The KD was calculated from the quotient kd/ka.
Two CM5 sensor chips were used in total to immobilize both mAbs. […] Biacore 2000 optical biosensors were used for all studies.
Next, pep-3 was flowed across the mAb immobilized biosensor surfaces. The starting concentration of pep-3 was 1.25 μM, which was followed with eight two-fold serial dilutions in randomized triplicate injections. Blank injections were run every sixth sample throughout the injection series for double referencing purposes.
Finally, the biosensor data was processed with Scrubber and the data was fit to curves utilizing Clamp with a 1:1 interaction model with a term included for mass transport. […]

[4] = target: T4, H1477 (H80-EGFRvIII) cells (Homo sapiens, UniProt P00533, DELINS30-297G); assay: FACS staining of H1477 (H80-EGFRvIII) cells; assay type: cell-based
T4 construct: host or cells: H1477 (H80 human glioblastoma line transfected with EGFRvIII)
Experimental: (§1) The specificity of the purified antibodies was ascertained by performing FACS analysis on a panel of cell lines. H80, a human glioblastoma line, and H1477 (H80-EGFRvIII) that expresses high levels of EGFRvIII, A431, a human epidemoid carcinoma line, and A549, a human lung carcinoma cell line were used as the cell lines. All cell lines were from Dr. Bigner except A431 and A549, which were from ATCC (Rockville, Md., U.S.A.). Cells were incubated on ice with 10 μg/ml of the respective antibody for 30 min., washed in FACS buffer and subsequently incubated with PE-conjugated goat anti-human IgG from Jackson ImmunoResearch (West Grove, Pa., U.S.A.). In FIGS. 9A-9L and 10A-10D, the darkened histogram indicates cells stained with an irrelevant IgG, the outlined, or white histogram, represents the staining of the relevant antibodies.

[5] = target: T5, A549 cells (wild type EGFR) (Homo sapiens, UniProt P00533); assay: FACS staining of A549 cells; assay type: cell-based
T5 construct: host or cells: A549
Experimental: as §1

[6] = target: T6, A431 cells (wild type EGFR) (Homo sapiens, UniProt P00533); assay: FACS staining of A431 cells; assay type: cell-based
T6 construct: host or cells: A431
Experimental: as §1

[7] = target: T7, EGFRvIII rabbit Fc fusion protein (Homo sapiens, UniProt P00533, DELINS30-297G); assay: Western blot, purified EGFRvIII rabbit Fc fusion protein, reducing / non-reducing; assay type: binding; conditions: native and reduced
T7 construct: fragment encoding the extracellular domain of EGFRvIII was generated; made in house; host or cells: 293F cells
Experimental: (§2) Specifcially, a subset of the antibodies were tested for their binding of to lysates of tumor cell lines in Western plates of polyacrylamide gel electrophoresis under either non-reducing or reducing conditions. Purifed recombinant protein is also included. […] Sample identifications: • EGFRvIII—the rabbit Fc fusion protein • H1477—H80 human tumor cell line transfected with EGFRvIII expression contruct. These cells express both EGFR and EGFRvIII. • EGFR—purified wild-type EGFR protein • A431—human tumor cell line expressing only wild-type EGFR • A549—human tumor cell line expressing only wild-type EGFR • H80—human tumor cell line expressing only wild-type EGFR

[8] = target: T8, A431 lysate (wild-type EGFR) (Homo sapiens, UniProt P00533); assay: Western blot, A431 lysate; assay type: binding
T8 construct: host or cells: A431
Experimental: as §2

[9] = target: purified wild-type EGFR protein (Homo sapiens, UniProt P00533); assay: Western blot, purified wild-type EGFR protein; assay type: binding
Experimental: as §2

B1: 125 D10: B-cell culture supernatant well (antibody, V domains shown)
VH: QVQLQQSGPGLVKPSQTLSLTCAISGDSVSSNNAAWNWIRQSPARGLEWLGRTYYRSKWYNDYVVSVKSRITINPDTSKNQFSLQLNSVTPEDTAVYYCVRATAFDYWGQGTLVTVSS
VL: AIVLTQTPLSSPVTLGQPASISCRSSQSLVHRDGNTYLSWLQQRPGQPPRLLIYKISNRFSGVPDRFSGSGAGTDFTLKISRVEPDDVGVYYCMHTTQLPWTFGQGTKVEIK
With glutathione FL1 × count ([1]; 37° C. for 30 mins, then 50 mM glutathione): 1236 | % internalized, (glut+/glut−) × 100 ([1]; NR6 M cells, 37° C. 30 mins): 52.8% | No glutathione FL1 × count ([1]; set kept on ice, no glutathione): 2342

B2: 095: XenoMax derived human anti-EGFRvIII antibody (antibody, V domains shown)
VH: QVQLQESGPFLVKPSQTLSLTCTVSGGSISSGGYYWSWIRQHPGKGLEWIGFIYYRGNTYYNPSLKSRVTISVDTSKNQFSLKLSSVTAADTAVYYCARDGYCSRTGCYGGWFDPWGQGTLVTVSP
VL: DIVMTQTPLSSPVTLGQPASISCRSSQSLIHTDGNIYLSWLQQRPGQPPRLLIYKISNRFSGVPDRFSGSGAGTDFTLKISRVEAEDVGVYYCMQGTQFPITFGQGTRLEIK
Epitope mapped by SPOTs [2]: (SEQ ID NO: 96) | ka ([3]; curve fitting): 1.491*10^5 | kd ([3]; curve fitting): 9.927*10^−3 | Ka [3]: 149000 M⁻¹ s⁻¹ | dissociation rate constant (kd, koff) [3]: 0.0099 s⁻¹

B3: 139: XenoMax derived human anti-EGFRvIII IgG1, from well 182A5 (antibody, V domains shown)
VH: EVQVLESGGGLVQPGGSLRLSCAASGFTFSSYAMSWVRQAPGKGLEWVSAISGSGGSTNYADSVKGRFTISRDNSKNTLYLQMNSLRAEDTAVYYCAGSSGWSEYWGQGTLVTVSS
VL: DIQMTQSPSSLSASVGDRVTITCRASQGIRNNLAWYQQKPGKAPKRLIYAASNLQSGVPSRFTGSGSGTEFTLIVSSLQPEDFATYYCLQHHSYPLTSGGGTKVEIK
Binding to the EGFRvIII protein on the transfected cell lines ([4]; 10 μg/ml): bind | Selectivity for EGFRvIII expressing cells (H1477) as compared to ABX-EGF ([4]; FIGS. 9A-9L, 10A-10D): superior selectivity | Binding / staining of A549 cells in FACS [5]: stained | Epitope mapped by SPOTs [2]: (SEQ ID NO: 95) | Binding / staining of A431 cells in FACS [6]: stained | kd ([3]; curve fitting): 2.981*10^−3 | Ka [3]: 10300 M⁻¹ s⁻¹ | dissociation rate constant (kd, koff) [3]: 0.00298 s⁻¹

B4: 250: XenoMax derived human anti-EGFRvIII antibody, from well 138D2 (antibody, V domains shown)
VH: EGQLLESGGGWVQPGESLRLSCAASGFTFSSYAMSWVRQAPGKGLEWVSAISGSGGSTNYADSVKGRFTISRDNSKNTLYLQVNSLRVEDTAVYYCAGSSGWSEYWGQGTLVTVSS
VL: DIQMTQSPSSLSASVGDSVTITCRTSQGIRKNLGWYQQKPGKAPKRLIYAASSLQSGVPSRFSGSGSGTEFTLTISRLQPEDFATYYCLQHHSYPLTFGGGTRVEIR
Epitope mapped by SPOTs [2]: (SEQ ID NO: 95)

B5: 211: XenoMax derived human anti-EGFRvIII antibody, from well 190D7 (antibody, V domains shown)
VH: QVQLVESGGGVVQPGRSLRLSCVASGFTLSSYGMHWVRQAPGKGLEWVAVTSYDGSKKDYADSAKGRFTISRDNSKNTLYLQMNSLRAEDTAVYYCVSEGYCSSSSCYKYYYYGMDVWGQGTTVTVSS
VL: DIVMTQSPLSLPVTPGEPASISCRSSQSLLYRNGNNYLDWYLQRPGQSPQLLIYLGSNRASGVPDRFSGSGSGTDFTLKISRVEAEDVGVYYCMQALQTPRTFGQGTKVEIK
Binding to purified EGFRvIII in Western blots [7]: binds to both native and reduced | Epitope mapped by SPOTs [2]: (SEQ ID NO: 97) | Binding in Western blot of A431 lysate, reduced sample [8]: no signal | Binding in Western blot of lysate of A431 cells [8]: cross reacted | Binding in Western blot of A431 lysate, non-reduced sample ([8]; band of the size of wild-type EGFR): binds strongly | Binding to purified wildtype EGFr in Western blots [9]: cross reacted
